Test results from article PMC2852888.
Like-named read-outs stand apart in the source and are kept apart here.

Assays:
[1] = biological target: Max b/HLH/Z domain (amino acids 22-113) (UniProt P61244); test: fluorescence polarisation
[2] = biological target: Max b/HLH/Z domain (amino acids 22-113) (UniProt P61244); test: fluorescence polarisation; remark: listed apart in the source
[3] = biological target: Max b/HLH/Z domain (amino acids 22-113) (UniProt P61244); test: fluorescence polarisation; remark: listed apart in the source
[4] = biological target: Max b/HLH/Z domain (amino acids 22-113) (UniProt P61244); test: fluorescence polarisation; remark: listed apart in the source
Max b/HLH/Z [5] = biological target: T1, Max b/HLH/Z (UniProt P61244 22-113); test: stopped-flow fluorescence anisotropy
Max b/HLH/Z monomer = Max b/HLH/Z monomer (UniProt P61244 22-113); test: stopped-flow fluorescence anisotropy
[6] = biological target: T2, c-Myc b/HLH/Z;Max b/HLH/Z (;, UniProt P01106-1;P61244 347-439;22-113, |); test: stopped-flow fluorescence anisotropy
Mad1;Max b/HLH/Z [7] = biological target: T3, Mad1;Max b/HLH/Z (;, UniProt Q05195;P61244 1-221;22-113, |); test: stopped-flow fluorescence anisotropy
Max b/HLH/Z [8] = biological target: T1, Max b/HLH/Z; test: stopped-flow fluorescence anisotropy; remark: listed apart in the source
[9] = biological target: T2, c-Myc b/HLH/Z;Max b/HLH/Z; test: stopped-flow fluorescence anisotropy; remark: listed apart in the source
Mad1;Max b/HLH/Z [10] = biological target: T3, Mad1;Max b/HLH/Z; test: stopped-flow fluorescence anisotropy; remark: listed apart in the source

Chain of Max b/HLH/Z domain (amino acids 22-113) (P61244 22-113): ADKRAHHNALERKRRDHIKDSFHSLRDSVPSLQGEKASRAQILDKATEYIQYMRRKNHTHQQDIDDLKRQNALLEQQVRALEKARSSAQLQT
T1 sequence (P61244 22-113): as above
T2 sequence (P01106 362-454, chain 1 of 2): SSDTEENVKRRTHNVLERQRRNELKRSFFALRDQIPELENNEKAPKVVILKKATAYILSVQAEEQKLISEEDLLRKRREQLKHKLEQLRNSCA
T2 sequence (P61244 22-113, chain 2 of 2): as the sequence (P61244 22-113) above
T3 sequence (Q05195 whole entry, chain 1 of 2): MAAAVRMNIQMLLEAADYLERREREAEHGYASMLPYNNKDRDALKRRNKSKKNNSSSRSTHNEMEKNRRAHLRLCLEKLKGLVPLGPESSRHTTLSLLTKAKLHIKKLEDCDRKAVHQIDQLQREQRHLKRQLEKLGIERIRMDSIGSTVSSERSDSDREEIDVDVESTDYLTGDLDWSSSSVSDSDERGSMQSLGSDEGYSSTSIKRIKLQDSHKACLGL
T3 sequence (P61244 22-113, chain 2 of 2): as the sequence (P61244 22-113) above
Chain of Max b/HLH/Z monomer (P61244 22-113): as above

c-Myc b/HLH/Z domain (amino acids 347-439) (domain or fragment)
kobs (association rate constant) [1]: 109 s⁻¹
association rate constant with the Max·DNA complex [2]: 126 s⁻¹
k2 (forward rate constant of the second step, from the intercept) [2]: 91 s⁻¹
kobs (association rate constant) [2]: 118 s⁻¹
kobs (association rate constant) [3]: 67 s⁻¹
kobs (association rate constant) [4]: 90 s⁻¹

B1: MLP E-box 16-mer, label not stated (dsDNA)
DNA 1: TAGGCCACGTGACCGG
DNA 2: CCGGTCACGTGGCCTA
binding result (Max b/HLH/Z [5]): binds
binding result (Max b/HLH/Z monomer): binds
binding result [6]: binds
binding result (Mad1;Max b/HLH/Z [7]): binds

B2: MLP E-box 16-mer, FITC-labelled (dsDNA)
DNA 1: TAGGCCACGTGACCGG
DNA 2: CCGGTCACGTGGCCTA
binding result (Max b/HLH/Z [8]): binds
binding result [9]: binds
binding result (Mad1;Max b/HLH/Z [10]): binds
